# Assay results from article PMC12850475.
# How the values were obtained:
# Protein A (SpA) [1] = biological target: Protein A (SpA) (UniProt P38507); assay: SPR
# Protein A (SpA) [2] = biological target: Protein A (SpA) (UniProt P38507); assay: SPR; Protein A amine-coupled to a CM5 chip (channel 2, 122 RU); antibodies eluted by pH (50 mM sodium acetate pH 3.0) as analyte at 12.5 and 25 µg/mL in HBS-P; qualitative; percent able to bind calculated from a standard curve; triplicate
substance,measurement,setting,value
human Immunoglobulin G purified from human blood plasma (antibody),percentage of antibody still able to bind,Protein A (SpA) [1],74.8%
same,percentage of antibody still able to bind,Protein A (SpA) [2],46.7%
